Measured values reported in US20190300590A1.
*1 amine or outer side, *2 acyl side, *3 side chain or, on linkers, in order; H or OH if unused. Bridges are numbered along the chain shown (N, C = ends). Primed or numbered codes have the meaning given here. [ ]: non-standard residue; d: D form. Phe(4-(2-acetylaminoethoxy))″ = 4-(2-acetylaminoethoxy)phenylalanine, CC(=O)NCCOc1ccc(C[C@H](N[*:1])C(=O)[*:2])cc1; Phe(4-OMe)(4) = O-methyl-L-tyrosine, COc1ccc(C[C@H](N[*:1])C(=O)[*:2])cc1; 2Nal = N[C@@H](Cc1ccc2ccccc2c1)C(=O)O; AEF = NCCOc1ccc(C[C@H](N)C(=O)O)cc1; Cit = NC(=O)NCCC[C@H](N)C(=O)O; αMeOrn = C[C@](N)(CCCN)C(=O)O; Pen = CC(C)(S)[C@H](N)C(=O)O; αMeK = C[C@](N)(CCCCN)C(=O)O; Orn = NCCC[C@H](N)C(=O)O; Dab = NCC[C@H](N)C(=O)O; Abu = CC[C@H](N)C(=O)O; Dap = NC[C@H](N)C(=O)O; Aib = CC(C)(N)C(=O)O

Experiments:
[1] = target: IL23R_huFC (human) (UniProt Q5VWK5); assay: IL23-IL23R competitive binding ELISA
Target sequence in this assay (Q5VWK5 24-353 limits assumed): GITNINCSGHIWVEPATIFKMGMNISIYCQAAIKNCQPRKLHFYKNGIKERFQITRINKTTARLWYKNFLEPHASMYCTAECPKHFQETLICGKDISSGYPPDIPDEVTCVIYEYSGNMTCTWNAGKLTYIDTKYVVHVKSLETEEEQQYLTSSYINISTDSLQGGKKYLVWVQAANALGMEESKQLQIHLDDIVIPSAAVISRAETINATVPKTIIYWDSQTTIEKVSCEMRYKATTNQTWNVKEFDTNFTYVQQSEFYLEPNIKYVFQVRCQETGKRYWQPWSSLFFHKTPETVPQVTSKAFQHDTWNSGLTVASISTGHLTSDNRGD

[2] = target: IL23R_huFC (human) (UniProt Q5VWK5); assay: human ELISA vs IL-23
Target sequence in this assay (Q5VWK5 24-353): as the sequence (Q5VWK5 24-353 limits assumed) above

[3] = target: Rat IL-23R_huFC (rat) (UniProt F1LX96); assay: rat IL-23R competitive binding ELISA

Row | Binder | IC50 [1] [nM] | IC50 [2] [nM] | IC50 [3] [nM]
1 | Ac-[Abu]QTWQC[AEF][2Nal][Orn][Dap]NG-NH2 (thioether 1-6) [Ac-Cyclo-[[Abu]-QTWQC]-[Phe[4-(2-aminoethoxy)]]-[2-Nal]-[Orn]-[Dap]-NG-NH2] |  | 25 to 100 | 
2 | XQTWQXFXXKNG (Ac; Pen-Pen disulfide; Phe(4-OMe); 2-Nal; α-MeOrn; Lys(Ac); NH2) [Ac-[Pen]-QTWQ-[Pen]-[Phe(4-OMe)]-[2-Nal]-[α-MeOrn]-[Lys(Ac)]-NG-NH2] | 100 to 1000 |  | 
3 | Ac-[Pen][Dap]TWQ[Pen][AEF][2Nal][αMeK]ENG-NH2 (disulfide 1-6 (inferred)) [Ac-[Pen]-[Dap]-TWQ-[Pen]-[Phe[4-(2-aminoethoxy)]-[2-Nal]-[α-MeLys]-ENG-NH2] | < 10 |  | 25 to 100
4 | XQTWQXYXXENG (Ac; Pen-Pen disulfide; 1-Nal; α-MeOrn; NH2) [Ac-[Pen]-QTWQ-[Pen]-Y-[1-Nal]-[α-MeOrn]-ENG-NH2] | 100 to 1000 |  | 100 to 1000
5 | XQTWQXFXXKNN (Ac; Pen-Pen disulfide; Phe[4-(2-aminoethoxy)]; 2-Nal; Aib; Lys(Ac); NH2) [Ac-[Pen]-QTWQ-[Pen]-[Phe[4-(2-aminoethoxy)]-[2-Nal]-Aib-[Lys(Ac)]-NN-NH2] | < 10 |  | 
6 | Ac-[Pen][αMeOrn](Ac)TWQ[Pen][Phe(4-(2-acetylaminoethoxy))″][2Nal][αMeK](Ac)ENG-NH2 (disulfide 1-6 (inferred)) [Ac-[Pen]-[α-MeOrn(Ac)]-TWQ-[Pen]-[Phe[4-(2-acetylaminoethoxy)]-[2-Nal]-[α-MeLys(Ac)]-ENG-NH2] | 100 to 1000 |  | 
7 | Ac-[Abu]QTWQC[Phe(4-OMe)(4)][2Nal][Orn][Dap]NG-NH2 (thioether 1-6) [Ac-Cyclo-[[Abu]-QTWQC]-[Phe(4-OMe)]-[2-Nal]-[Orn]-[Dap]-NG-NH2] |  | 100 to 1000 | 
8 | XQTWQXFXXKNN (Ac; Pen-Pen disulfide; Phe[4-(2-acetylaminoethoxy)]; 2-Nal; Aib; Lys(Ac); NH2) [Ac-[Pen]-QTWQ-[Pen]-[Phe[4-(2-acetylaminoethoxy)]-[2-Nal]-[Aib]-[Lys(Ac)]-NN-NH2] | < 10 |  | 
9 | XNTWQXFXXKNA (Ac; Pen-Pen disulfide; Phe[4-(2-aminoethoxy)]; 2-Nal; Aib; Lys(Ac); βAla; NH2) [Ac-[Pen]-NTWQ-[Pen]-[Phe[4-(2-aminoethoxy)]-[2-Nal]-[Aib]-[Lys(Ac)]-N-[βAla]-NH2] |  |  | 10 to 25
10 | XNTWQXFXXKNN (Ac; Pen-Pen disulfide; Phe(4-CONH2); 2-Nal; Acvc; NH2; DIG linker joins the two subunits) [[Ac-[Pen]-NTWQ-[Pen]-[Phe(4-CONH2)]-[2-Nal]-[Acvc]-KNN-NH2]2DIG] | < 10 |  | 10 to 25
11 | Ac-[Abu]QTWQC[AEF][2Nal][Aib]E[Dab](Ac)G-NH2 (thioether 1-6) [Ac-Cyclo-[[Abu]-QTWQC]-[Phe[4-(2-aminoethoxy)]]-[2-Nal]-[Aib]-E-[Dab(Ac)]-G-NH2] |  | < 10 | 
12 | Ac-[Abu]QTWQC[AEF][2Nal][Cit][Dap]NG-NH2 (thioether 1-6) [Ac-Cyclo-[[Abu]-QTWQC]-[Phe[4-(2-aminoethoxy)]]-[2-Nal]-[Cit]-[Dap]-NG-NH2] |  | 10 to 25 | 
13 | XQTWQXYXXENG (Ac; Pen-Pen disulfide; 2-Nal; α-MeOrn; NH2) [Ac-[Pen]-QTWQ-[Pen]-Y-[2-Nal]-[α-MeOrn]-ENG-NH2] | 25 to 100 |  | 100 to 1000
14 | Ac-[Abu]QTWQC[AEF][2Nal][Orn][Dap](Ac)NG-NH2 (thioether 1-6) [Ac-Cyclo-[[Abu]-QTWQC]-[Phe[4-(2-aminoethoxy)]]-[2-Nal]-[Orn]-[Dap(Ac)]-NG-NH2] |  | 25 to 100 | 

The remaining lines, values ahead:

Row | IC50 [1] [nM] | IC50 [2] [nM] | IC50 [3] [nM] | Binder
15 | < 10 |  |  | XQTWQXFXXENN (Ac; Pen-Pen disulfide; Phe[4-(2-aminoethoxy)]; 2-Nal; Aib; NH2) [Ac-[Pen]-QTWQ-[Pen]-[Phe[4-(2-aminoethoxy)]-[2-Nal]-[Aib]-ENN-NH2]
16 | 100 to 1000 |  |  | Ac-[Pen][αMeOrn]TWQ[Pen][AEF][2Nal][αMeK]ENG-NH2 (disulfide 1-6 (inferred)) [Ac-[Pen]-[α-MeOrn]-TWQ[Pen]-[Phe[4-(2-aminoethoxy)]-[2-Nal]-[α-MeLys]-ENG-NH2]
17 | 100 to 1000 |  | 100 to 1000 | Ac-[Pen]QTWQ[Pen][2Nal][2Nal][αMeK]ENG-NH2 (disulfide 1-6; SMILES CC(=O)N[C@@H]1C(=O)N[C@@H](CCC(N)=O)C(=O)N[C@@H]([C@@H](C)O)C(=O)N[C@@H](Cc2c[nH]c3ccccc23)C(=O)N[C@@H](CCC(N)=O)C(=O)N[C@H](C(=O)N[C@@H](Cc2ccc3ccccc3c2)C(=O)N[C@@H](Cc2ccc3ccccc3c2)C(=O)N[C@@](C)(CCCCN)C(=O)N[C@@H](CCC(=O)O)C(=O)N[C@@H](CC(N)=O)C(=O)NCC(N)=O)C(C)(C)SSC1(C)C) [Ac-[Pen]-QTWQ-[Pen]-[2-Nal]-[2-Nal]-[α-MeLys]-ENG-NH2]
18 | 10 to 25 |  |  | XQTWQXFXXENN (Ac; Pen-Pen disulfide; Phe[4-(2-acetylaminoethoxy)]; 2-Nal; Aib; NH2) [Ac-[Pen]-QTWQ-[Pen]-[Phe[4-(2-acetylaminoethoxy)]-[2-Nal]-[Aib]-ENN-NH2]
19 |  | 10 to 25 |  | Ac-[Abu]QTWQC[AEF][2Nal][Aib]E[Dap](Ac)G-NH2 (thioether 1-6) [Ac-Cyclo-[[Abu]-QTWQC]-[Phe[4-(2-aminoethoxy)]]-[2-Nal]-[Aib]-E-[Dap(Ac)]-G-NH2]
20 | < 10 |  | 10 to 25 | XNTWQXFXXKNN (Ac; Pen-Pen disulfide; Phe(4-CONH2); 2-Nal; Aib; NH2; DIG linker joins the two subunits) [[Ac-[Pen]-NTWQ-[Pen]-[Phe(4-CONH2)]-[2-Nal]-[Aib]-KNN-NH2]2DIG]
21 | 10 to 25 |  |  | Ac-[Pen][Dap](Ac)TWQ[Pen][Phe(4-(2-acetylaminoethoxy))″][2Nal][αMeK](Ac)ENG-NH2 (disulfide 1-6 (inferred)) [Ac-[Pen]-Dap(Ac)TWQ-[Pen]-[Phe[4-(2-acetylaminoethoxy)]-[2-Nal]-[α-MeLys(Ac)]-ENG-NH2]
22 | < 10 |  | < 10 | XNTWQXFXXKNN (Ac; Pen-Pen disulfide; Phe[4-(2-aminoethoxy)]; 2-Nal; Aib; Lys(Ac); NH2) [Ac-[Pen]-NTWQ-[Pen]-[Phe[4-(2-aminoethoxy)]-[2-Nal]-[Aib]-[Lys(Ac)]-NN-NH2]
